Reference: US20260049138A1 (Chugai, published 2026)

Target: T1, CD3ε homodimer protein (human, UniProt P07766 23-126, limits assumed)
T1 construct: also called CD3 (CD3ε)
Assay: SPR Biacore T200, CD3ε homodimer on chip;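 note: Light-chain single-residue variant antibodies injected over amine-coupled CD3ε homodimer on a CM4 chip at 25 °C, bound amount divided by that of the GLS3000-containing antibody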
Experimental: Each one-amino acid altered form constructed, expressed, and purified in the paragraph (6-2) was evaluated using Biacore T200 (GE Healthcare Japan Corp.). An appropriate amount of CD3ε homodimer protein was immobilized onto Sensor chip CM4 (GE Healthcare Japan Corp.) by the amine coupling method. Then, the antibody having an appropriate concentration was injected thereto as an analyte and allowed to interact with the CD3ε homodimer protein on the sensor chip. Then, the sensor chip was regenerated by the injection of 10 mmol/L glycine-HCl (pH 1.5). The assay was conducted at 25° C., and HBS-EP+ (GE Healthcare Japan Corp.) was used as a running buffer. […] Each parameter was calculated using Biacore T200 Evaluation Software (GE Healthcare Japan Corp.).
Specifically, when the amount of the GLS3000-containing antibody bound was defined as X and the amount of the L chain one-amino acid altered form bound was defined as Y, a value of Z (ratio of amounts bound)=Y/X was used.

T1 sequence (P07766 23-126 limits assumed): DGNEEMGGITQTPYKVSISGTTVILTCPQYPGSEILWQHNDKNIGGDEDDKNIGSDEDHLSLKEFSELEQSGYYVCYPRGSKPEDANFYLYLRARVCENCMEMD

ratio of amount bound vs unaltered GLS3000	Binder
0.39	GLS3000 N28M one-arm antibody (antibody, human IgG1, kappa, L234A L235A, N297A, name in Kabat numbering) heavy: QVQLVESGGGVVQPGRSLRLSCAASGFTFSNAWMHWVRQAPGKGLEWVAQIKAKSNNYATYYAESVKGRFTISRDDSKNSLYLQMNSLKTEDTAVYYCRYVHYGAYYGVDAWGQGTTVTVSSASTKGPSVFPLAPSSKSTSGGTAALGCLVKDYFPEPVTVSWNSGALTSGVHTFPAVLQSSGLYSLSSVVTVPSSSLGTQTYICNVNHKPSNTKVDKKVEPKSCDKTHTCPPCPAPEAAGGPSVFLFPPKPKDTLMISRTPEVTCVVVDVSHEDPEVKFNWYVDGVEVHNAKTKPREEQYASTYRVVSVLTVLHQDWLNGKEYKCKVSNKALPAPIEKTISKAKGQPREPQVYTLPPSRCELTKNQVSLSCAVKGFYPSDIAVEWESNGQPENNYKTTPPVLDSDGSFFLVSKLTVDKSRWQQGNVFSCSVMHEALHNHYTQKSLSLSPDYKDDDDK EPKSSDKTHTCPPCPAPELLGGPSVFLFPPKPKDTLMISRTPEVTCVVVDVSHEDPEVKFNWYVDGVEVHNAKTKPREEQYNSTYRVVSVLTVLHQDWLNGKEYKCKVSNKALPAPIEKTISKAKGQPREPQVCTLPPSRDELTKNQVSLWCLVKGFYPSDIAVEWESNGQPENNYKTTPPVLDSDGSFFLYSKLTVDKSRWQQGNVFSCSVMHEALHNRYTQKSLSLSP light: DIVMTQSPLSLPVTPGEPASISCRSSQSLVHSMRNTYLHWYQQKPGQAPRLLIYKVSNRFSGVPDRFSGSGSGTDFTLKISRVEAEDVGVYYCGQGTQVPYTFGQGTKLEIKRTVAAPSVFIFPPSDEQLKSGTASVVCLLNNFYPREAKVQWKVDNALQSGNSQESVTEQDSKDSTYSLSSTLTLSKADYEKHKVYACEVTHQGLSSPVTKSFNRGEC
0.36	GLS3000 N28P one-arm antibody (antibody, human IgG1, kappa, L234A L235A, N297A, name in Kabat numbering) heavy: QVQLVESGGGVVQPGRSLRLSCAASGFTFSNAWMHWVRQAPGKGLEWVAQIKAKSNNYATYYAESVKGRFTISRDDSKNSLYLQMNSLKTEDTAVYYCRYVHYGAYYGVDAWGQGTTVTVSSASTKGPSVFPLAPSSKSTSGGTAALGCLVKDYFPEPVTVSWNSGALTSGVHTFPAVLQSSGLYSLSSVVTVPSSSLGTQTYICNVNHKPSNTKVDKKVEPKSCDKTHTCPPCPAPEAAGGPSVFLFPPKPKDTLMISRTPEVTCVVVDVSHEDPEVKFNWYVDGVEVHNAKTKPREEQYASTYRVVSVLTVLHQDWLNGKEYKCKVSNKALPAPIEKTISKAKGQPREPQVYTLPPSRCELTKNQVSLSCAVKGFYPSDIAVEWESNGQPENNYKTTPPVLDSDGSFFLVSKLTVDKSRWQQGNVFSCSVMHEALHNHYTQKSLSLSPDYKDDDDK EPKSSDKTHTCPPCPAPELLGGPSVFLFPPKPKDTLMISRTPEVTCVVVDVSHEDPEVKFNWYVDGVEVHNAKTKPREEQYNSTYRVVSVLTVLHQDWLNGKEYKCKVSNKALPAPIEKTISKAKGQPREPQVCTLPPSRDELTKNQVSLWCLVKGFYPSDIAVEWESNGQPENNYKTTPPVLDSDGSFFLYSKLTVDKSRWQQGNVFSCSVMHEALHNRYTQKSLSLSP light: DIVMTQSPLSLPVTPGEPASISCRSSQSLVHSPRNTYLHWYQQKPGQAPRLLIYKVSNRFSGVPDRFSGSGSGTDFTLKISRVEAEDVGVYYCGQGTQVPYTFGQGTKLEIKRTVAAPSVFIFPPSDEQLKSGTASVVCLLNNFYPREAKVQWKVDNALQSGNSQESVTEQDSKDSTYSLSSTLTLSKADYEKHKVYACEVTHQGLSSPVTKSFNRGEC
0.45	GLS3000 N28T one-arm antibody (antibody, human IgG1, kappa, L234A L235A, N297A, name in Kabat numbering) heavy: QVQLVESGGGVVQPGRSLRLSCAASGFTFSNAWMHWVRQAPGKGLEWVAQIKAKSNNYATYYAESVKGRFTISRDDSKNSLYLQMNSLKTEDTAVYYCRYVHYGAYYGVDAWGQGTTVTVSSASTKGPSVFPLAPSSKSTSGGTAALGCLVKDYFPEPVTVSWNSGALTSGVHTFPAVLQSSGLYSLSSVVTVPSSSLGTQTYICNVNHKPSNTKVDKKVEPKSCDKTHTCPPCPAPEAAGGPSVFLFPPKPKDTLMISRTPEVTCVVVDVSHEDPEVKFNWYVDGVEVHNAKTKPREEQYASTYRVVSVLTVLHQDWLNGKEYKCKVSNKALPAPIEKTISKAKGQPREPQVYTLPPSRCELTKNQVSLSCAVKGFYPSDIAVEWESNGQPENNYKTTPPVLDSDGSFFLVSKLTVDKSRWQQGNVFSCSVMHEALHNHYTQKSLSLSPDYKDDDDK EPKSSDKTHTCPPCPAPELLGGPSVFLFPPKPKDTLMISRTPEVTCVVVDVSHEDPEVKFNWYVDGVEVHNAKTKPREEQYNSTYRVVSVLTVLHQDWLNGKEYKCKVSNKALPAPIEKTISKAKGQPREPQVCTLPPSRDELTKNQVSLWCLVKGFYPSDIAVEWESNGQPENNYKTTPPVLDSDGSFFLYSKLTVDKSRWQQGNVFSCSVMHEALHNRYTQKSLSLSP light: DIVMTQSPLSLPVTPGEPASISCRSSQSLVHSTRNTYLHWYQQKPGQAPRLLIYKVSNRFSGVPDRFSGSGSGTDFTLKISRVEAEDVGVYYCGQGTQVPYTFGQGTKLEIKRTVAAPSVFIFPPSDEQLKSGTASVVCLLNNFYPREAKVQWKVDNALQSGNSQESVTEQDSKDSTYSLSSTLTLSKADYEKHKVYACEVTHQGLSSPVTKSFNRGEC
0.36	GLS3000 N28V one-arm antibody (antibody, human IgG1, kappa, L234A L235A, N297A, name in Kabat numbering) heavy: QVQLVESGGGVVQPGRSLRLSCAASGFTFSNAWMHWVRQAPGKGLEWVAQIKAKSNNYATYYAESVKGRFTISRDDSKNSLYLQMNSLKTEDTAVYYCRYVHYGAYYGVDAWGQGTTVTVSSASTKGPSVFPLAPSSKSTSGGTAALGCLVKDYFPEPVTVSWNSGALTSGVHTFPAVLQSSGLYSLSSVVTVPSSSLGTQTYICNVNHKPSNTKVDKKVEPKSCDKTHTCPPCPAPEAAGGPSVFLFPPKPKDTLMISRTPEVTCVVVDVSHEDPEVKFNWYVDGVEVHNAKTKPREEQYASTYRVVSVLTVLHQDWLNGKEYKCKVSNKALPAPIEKTISKAKGQPREPQVYTLPPSRCELTKNQVSLSCAVKGFYPSDIAVEWESNGQPENNYKTTPPVLDSDGSFFLVSKLTVDKSRWQQGNVFSCSVMHEALHNHYTQKSLSLSPDYKDDDDK EPKSSDKTHTCPPCPAPELLGGPSVFLFPPKPKDTLMISRTPEVTCVVVDVSHEDPEVKFNWYVDGVEVHNAKTKPREEQYNSTYRVVSVLTVLHQDWLNGKEYKCKVSNKALPAPIEKTISKAKGQPREPQVCTLPPSRDELTKNQVSLWCLVKGFYPSDIAVEWESNGQPENNYKTTPPVLDSDGSFFLYSKLTVDKSRWQQGNVFSCSVMHEALHNRYTQKSLSLSP light: DIVMTQSPLSLPVTPGEPASISCRSSQSLVHSVRNTYLHWYQQKPGQAPRLLIYKVSNRFSGVPDRFSGSGSGTDFTLKISRVEAEDVGVYYCGQGTQVPYTFGQGTKLEIKRTVAAPSVFIFPPSDEQLKSGTASVVCLLNNFYPREAKVQWKVDNALQSGNSQESVTEQDSKDSTYSLSSTLTLSKADYEKHKVYACEVTHQGLSSPVTKSFNRGEC
0.32	GLS3000 N28S one-arm antibody (antibody, human IgG1, kappa, L234A L235A, N297A, name in Kabat numbering) heavy: QVQLVESGGGVVQPGRSLRLSCAASGFTFSNAWMHWVRQAPGKGLEWVAQIKAKSNNYATYYAESVKGRFTISRDDSKNSLYLQMNSLKTEDTAVYYCRYVHYGAYYGVDAWGQGTTVTVSSASTKGPSVFPLAPSSKSTSGGTAALGCLVKDYFPEPVTVSWNSGALTSGVHTFPAVLQSSGLYSLSSVVTVPSSSLGTQTYICNVNHKPSNTKVDKKVEPKSCDKTHTCPPCPAPEAAGGPSVFLFPPKPKDTLMISRTPEVTCVVVDVSHEDPEVKFNWYVDGVEVHNAKTKPREEQYASTYRVVSVLTVLHQDWLNGKEYKCKVSNKALPAPIEKTISKAKGQPREPQVYTLPPSRCELTKNQVSLSCAVKGFYPSDIAVEWESNGQPENNYKTTPPVLDSDGSFFLVSKLTVDKSRWQQGNVFSCSVMHEALHNHYTQKSLSLSPDYKDDDDK EPKSSDKTHTCPPCPAPELLGGPSVFLFPPKPKDTLMISRTPEVTCVVVDVSHEDPEVKFNWYVDGVEVHNAKTKPREEQYNSTYRVVSVLTVLHQDWLNGKEYKCKVSNKALPAPIEKTISKAKGQPREPQVCTLPPSRDELTKNQVSLWCLVKGFYPSDIAVEWESNGQPENNYKTTPPVLDSDGSFFLYSKLTVDKSRWQQGNVFSCSVMHEALHNRYTQKSLSLSP light: DIVMTQSPLSLPVTPGEPASISCRSSQSLVHSSRNTYLHWYQQKPGQAPRLLIYKVSNRFSGVPDRFSGSGSGTDFTLKISRVEAEDVGVYYCGQGTQVPYTFGQGTKLEIKRTVAAPSVFIFPPSDEQLKSGTASVVCLLNNFYPREAKVQWKVDNALQSGNSQESVTEQDSKDSTYSLSSTLTLSKADYEKHKVYACEVTHQGLSSPVTKSFNRGEC
0.37	GLS3000 N28Q one-arm antibody (antibody, human IgG1, kappa, L234A L235A, N297A, name in Kabat numbering) heavy: QVQLVESGGGVVQPGRSLRLSCAASGFTFSNAWMHWVRQAPGKGLEWVAQIKAKSNNYATYYAESVKGRFTISRDDSKNSLYLQMNSLKTEDTAVYYCRYVHYGAYYGVDAWGQGTTVTVSSASTKGPSVFPLAPSSKSTSGGTAALGCLVKDYFPEPVTVSWNSGALTSGVHTFPAVLQSSGLYSLSSVVTVPSSSLGTQTYICNVNHKPSNTKVDKKVEPKSCDKTHTCPPCPAPEAAGGPSVFLFPPKPKDTLMISRTPEVTCVVVDVSHEDPEVKFNWYVDGVEVHNAKTKPREEQYASTYRVVSVLTVLHQDWLNGKEYKCKVSNKALPAPIEKTISKAKGQPREPQVYTLPPSRCELTKNQVSLSCAVKGFYPSDIAVEWESNGQPENNYKTTPPVLDSDGSFFLVSKLTVDKSRWQQGNVFSCSVMHEALHNHYTQKSLSLSPDYKDDDDK EPKSSDKTHTCPPCPAPELLGGPSVFLFPPKPKDTLMISRTPEVTCVVVDVSHEDPEVKFNWYVDGVEVHNAKTKPREEQYNSTYRVVSVLTVLHQDWLNGKEYKCKVSNKALPAPIEKTISKAKGQPREPQVCTLPPSRDELTKNQVSLWCLVKGFYPSDIAVEWESNGQPENNYKTTPPVLDSDGSFFLYSKLTVDKSRWQQGNVFSCSVMHEALHNRYTQKSLSLSP light: DIVMTQSPLSLPVTPGEPASISCRSSQSLVHSQRNTYLHWYQQKPGQAPRLLIYKVSNRFSGVPDRFSGSGSGTDFTLKISRVEAEDVGVYYCGQGTQVPYTFGQGTKLEIKRTVAAPSVFIFPPSDEQLKSGTASVVCLLNNFYPREAKVQWKVDNALQSGNSQESVTEQDSKDSTYSLSSTLTLSKADYEKHKVYACEVTHQGLSSPVTKSFNRGEC
